This experiment addresses M2e. The experiment is described as follows: peptide ELISA, mAb 5 ug/mL. Background: In an ELISA, binding on a coated surface is turned into a signal by an enzyme label.

In turn, “chimeric mouse V-region/human IgG1 kappa 14C2 antibody” registered an ELISA A450 of 3.98.
In the case of TCN-031 (23K12) (antibody) it was 0.43.

The record behind these values is patent publication US20110070235A1.
